Assay results reported in ChEMBL document CHEMBL4261651, “Probing the ligand preferences of the three types of bacterial pantothenate kinase” (Bioorg Med Chem, 2018).

Columns and labels:
[1] = compound: CC(C)(CO)[C@@H](O)C(=O)NCCC(=O)O; assay: (§1) Substrate activity at Pseudomonas aeruginosa PanK3 expressed in Escherichia coli BL21(DE3) cells assessed as Km in presence of ATP/NADH by pyruvate kinase/lactate dehydrogenase enzyme coupled assay
[2] = compound: CC(C)(CO)[C@@H](O)C(=O)NCCCC(=O)O; assay: as §1
[3] = compound: O=C(O)CCNC(=O)[C@H](O)CCO; assay: as §1
[4] = compound: CC(C)(CO)[C@@H](O)C(=O)NCCC(=O)O; assay: (§2) Substrate activity at Pseudomonas aeruginosa PanK3 expressed in Escherichia coli BL21(DE3) cells assessed as Kcat in presence of ATP/NADH by pyruvate kinase/lactate dehydrogenase enzyme coupled assay
[5] = compound: CC(C)(CO)[C@@H](O)C(=O)NCCCC(=O)O; assay: as §2
[6] = compound: O=C(O)CCNC(=O)[C@H](O)CCO; assay: as §2
[7] = compound: CC(C)(CO)[C@@H](O)C(=O)NCCC(=O)O; assay: (§3) Substrate activity at N-terminal His6-tagged Staphylococcus aureus PanK2 expressed in Escherichia coli BL21(DE3) cells assessed as Km in presence of ATP/NADH by pyruvate kinase/lactate dehydrogenase enzyme coupled assay
[8] = compound: CC(C)(CO)[C@@H](O)C(=O)NCCCC(=O)O; assay: as §3
[9] = compound: CC(C)(CO)[C@@H](O)C(=O)NCc1cn(CCc2ccccc2)nn1; assay: as §3
[10] = compound: CCCCCNC(=O)CCNC(=O)[C@H](O)C(C)(C)CO; assay: as §3
[11] = compound: CCCCCc1cn(CCNC(=O)[C@H](O)C(C)(C)CO)nn1; assay: as §3
[12] = compound: CCCCCn1cc(CCNC(=O)[C@H](O)C(C)(C)CO)nn1; assay: as §3
[13] = compound: CCCCCn1cc(CNC(=O)[C@H](O)C(C)(C)CO)nn1; assay: as §3
[14] = compound: CCCCn1cc(CCNC(=O)[C@H](O)C(C)(C)CO)nn1; assay: as §3
[15] = compound: CCCc1cn(CCCNC(=O)[C@H](O)C(C)(C)CO)nn1; assay: as §3
[16] = compound: COC(=O)CNC(=O)[C@H](O)C(C)(C)CO; assay: as §3
[17] = compound: CC(C)(CO)[C@@H](O)C(=O)NCCC(=O)O; assay: (§4) Substrate activity at N-terminal His6-tagged Staphylococcus aureus PanK2 expressed in Escherichia coli BL21(DE3) cells assessed as Kcat in presence of ATP/NADH by pyruvate kinase/lactate dehydrogenase enzyme coupled assay
[18] = compound: CC(C)(CO)[C@@H](O)C(=O)NCCCC(=O)O; assay: as §4
[19] = compound: CC(C)(CO)[C@@H](O)C(=O)NCc1cn(CCc2ccccc2)nn1; assay: as §4
[20] = compound: CCCCCNC(=O)CCNC(=O)[C@H](O)C(C)(C)CO; assay: as §4
[21] = compound: CCCCCc1cn(CCNC(=O)[C@H](O)C(C)(C)CO)nn1; assay: as §4
[22] = compound: CCCCCn1cc(CCNC(=O)[C@H](O)C(C)(C)CO)nn1; assay: as §4
[23] = compound: CCCCCn1cc(CNC(=O)[C@H](O)C(C)(C)CO)nn1; assay: as §4
[24] = compound: CCCCn1cc(CCNC(=O)[C@H](O)C(C)(C)CO)nn1; assay: as §4
[25] = compound: CCCc1cn(CCCNC(=O)[C@H](O)C(C)(C)CO)nn1; assay: as §4
[26] = compound: COC(=O)CNC(=O)[C@H](O)C(C)(C)CO; assay: as §4

B1: Type III pantothenate kinase (Pseudomonas aeruginosa (strain ATCC 15692 / DSM 22644 / CIP 104116 /JCM 14847 / LMG 12228 / 1C / PRS 101 / PAO1)), Q9HWC1 (protein)
chain: MILELDCGNSLIKWRVIEGAARSVAGGLAESDDALVEQLTSQQALPVRACRLVSVRSEQETSQLVARLEQLFPVSALVASSGKQLAGVRNGYLDYQRLGLDRWLALVAAHHLAKKACLVIDLGTAVTSDLVAADGVHLGGYICPGMTLMRSQLRTHTRRIRYDDAEARRALASLQPGQATAEAVERGCLLMLRGFVREQYAMACELLGPDCEIFLTGGDAELVRDELAGARIMPDLVFVGLALACPIE
Km [1]: 20 µM | Km [2]: 683 µM | Km [3]: 64 µM | kcat [4]: 0.39 s⁻¹ | kcat [5]: 0.98 s⁻¹ | kcat [6]: 0.32 s⁻¹

B2: Type II pantothenate kinase (Staphylococcus aureus (strain MSSA476)), Q6G7I0 (protein)
chain: MKVGIDAGGTLIKIVQEQDNQRTFKTELTKNIDQVVEWLNQQQIEKLCLTGGNAGVIAENINIPAQIFVEFDAASQGLGILLKEQGHDLADYIFANVGTGTSLHYFDGQSQRRVGGIGTGGGMIQGLGYLLSQITDYKQLTDMAQHGDRNTIDLKVRHIYKDTEPPIPGDLTAANFGHVLHHLDADFTPSNKLAAVIGVVGEVVTTMAITVAREFKTENIVYIGSSFHNNALLRKVVEDYTVLRGCKPYYVENGAFSGAIGALYLEK
Km [7]: 19 µM | Km [8]: 60 µM | Km [9]: 126 µM | Km [10]: < 1.5 µM | Km [11]: 8.5 µM | Km [12]: 6.8 µM | Km [13]: 64 µM | Km [14]: 7.1 µM | Km [15]: 369 µM | Km [16]: 36 µM | kcat [17]: 2.16 s⁻¹ | kcat [18]: 3.4 s⁻¹ | kcat [19]: 4.7 s⁻¹ | kcat [20]: 0.44 s⁻¹ | kcat [21]: 0.82 s⁻¹ | kcat [22]: 0.73 s⁻¹ | kcat [23]: 3.4 s⁻¹ | kcat [24]: 0.82 s⁻¹ | kcat [25]: 7.6 s⁻¹ | kcat [26]: 4 s⁻¹
